Test results as given in patent US20180120314.

Experiments:
[1] = biological target: T1, Methyl Red (MR)-AAPV-NBD-UBI29-41
T1 chain: AAPVKTGRAKRRMQYNRR

[2] = biological target: TAMRA-AAPV-NBD-PMX

B1: human neutrophil elastase (HNE) (protein)
chain: IVGGRRARPHAWPFMVSLQLRGGHFCGATLIAPNFVMSAAHCVANVNVRAVRVVLGAHNLSRREPTRQVFAVQRIFENGYDPVNLLNDIVILQLNGSATINANVQVAQLPAQGRRLGNGVQCLAMGWGLLGRNRGIASVLQELNVTVVTSLCRRSNVCTLVRGRQAGVCFGDSGSPLVCNGLIHGIASFVRGGCASGLYPDAFAPVAQFVNWIDSIIQ
[1]
  bacterial labelling (NBD fluorescence, confocal microscopy) after cleavage of the probe in a co-culture of bacteria and neutrophils: These images confirm the ability of the probe to be cleaved by neutrophil derived HNE and to label bacteria
[2]
  bacterial labelling by NBD fluorescence (confocal microscopy) after cleavage of the probe: Once the probe has been cleaved by elastase, the bacteria are labelled by the probe element due to the fluorescence of NBD
  fluorescence of the cleaved TAMRA compound (spectrophotometer, ex 525 nm, Em 580 nm): the fluorescence of the cleaved TAMRA compound increases in an elastase dependent manner and are inhibited with an elastase inhibitor such as sivelestat
